Experimental findings from article PMC9887883, “A family of C. elegans VASA homologs control Argonaute pathway specificity and promote transgenerational silencing” are described below.

The target in this data set is T1, GLH-1(DQAD) (Caenorhabditis elegans, UniProt P34689 1-763, E500Q).
T1 sequence: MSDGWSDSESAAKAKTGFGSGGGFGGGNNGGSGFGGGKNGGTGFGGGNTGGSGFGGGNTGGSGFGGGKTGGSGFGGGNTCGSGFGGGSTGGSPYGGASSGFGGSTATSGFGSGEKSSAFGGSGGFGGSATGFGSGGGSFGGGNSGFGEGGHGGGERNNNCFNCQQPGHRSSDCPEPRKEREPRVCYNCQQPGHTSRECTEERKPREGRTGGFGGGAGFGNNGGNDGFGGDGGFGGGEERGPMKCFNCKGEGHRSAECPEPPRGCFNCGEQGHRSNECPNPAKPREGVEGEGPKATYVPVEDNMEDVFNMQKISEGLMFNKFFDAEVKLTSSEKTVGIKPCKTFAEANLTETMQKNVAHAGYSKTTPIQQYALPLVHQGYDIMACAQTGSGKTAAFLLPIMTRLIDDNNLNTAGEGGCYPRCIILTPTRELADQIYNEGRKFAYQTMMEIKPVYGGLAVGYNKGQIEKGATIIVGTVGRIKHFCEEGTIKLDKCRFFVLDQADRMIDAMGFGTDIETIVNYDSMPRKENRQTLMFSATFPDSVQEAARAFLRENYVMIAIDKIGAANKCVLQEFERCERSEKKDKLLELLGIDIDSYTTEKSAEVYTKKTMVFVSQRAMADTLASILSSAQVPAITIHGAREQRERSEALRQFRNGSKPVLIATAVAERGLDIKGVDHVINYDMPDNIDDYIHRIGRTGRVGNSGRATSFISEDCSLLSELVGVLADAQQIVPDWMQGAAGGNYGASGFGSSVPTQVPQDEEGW
As to the kind of experiment: EMSA; 2 mM ATP, 2 mM MgCl2; 10 uM protein, 2 uM RNA; strong ATP-dependent binding; 25 mM HEPES pH 7.4, 150 mM NaCl, 2 mM MgCl2, +/- 2 mM ATP, 30 min at RT; native 8% PAGE in TBE, cold room. The settings on record: protein: recombinant; tags: FLAG; label: 5'-Cy3 (Methods); single strand.

B1: 22-nt ssRNA oligo (ssRNA)
RNA: GUCAAAGAUAGCCUUGACCUUG
As for B1, the binding result is on record as “binds”.
